The values below come from doi:10.1101/433532.

This test concerns the target recombinant CSN^ΔCSNAP complex (eight subunits, WT CSN5) (UniProt Q13098). The experiment in a line: native MS.

What is called stoichiometry N is a count of units in the complex or per binding partner. Regarding “CSNAP, recombinant subunit co-expressed in the CSN complex (natural protein)”, the stoichiometry N came out at 1.
